Data from article PMC5821319.

Assays:
[1] = cell surface flow cytometry, mAb BH026, Expi293; conditions: control: unmutated MeV-H genotype A
[2] = Western blot of transfected Vero cell lysates (total); conditions: control: unmutated MeV-H genotype A

| Protein | expression_or_secretion ([1]; glycan lost) | expression_or_secretion ([2]; glycan lost) | expression_or_secretion ([1]; glycan gained) | expression_or_secretion ([2]; glycan gained) |
| --- | --- | --- | --- | --- |
| MeV-H genotype A (measles virus envelope hemagglutinin protein): N200D (protein) parent chain: MSPQRDRINAFYKDNPHPKGSRIVINREHLMIDRPYVLLAVLFVMFLSLIGLLAIAGIRLHRAAIYTAEIHKSLSTNLDVTNSIEHQVKDVLTPLFKIIGDEVGLRTPQRFTDLVKLISDKIKFLNPDREYDFRDLTWCINPPERIKLDYDQYCADVAAEELMNALVNSTLLETRTTNQFLAVSKGNCSGPTTIRGQFSNMSLSLLDLYLGRGYNVSSIVTMTSQGMYGGTYLVEKPNLSSKRSELSQLSMYRVFEVGVIRNPGLGAPVFHMTNYLEQPVSNDLSNCMVALGELKLAALCHGEDSITIPYQGSGKGVSFQLVKLGVWKSPTDMQSWVPLSTDDPVIDRLYLSSHRGVIADNQAKWAVPTTRTDDKLRMETCFQQACKGKIQALCENPEWAPLKDNRIPSYGVLSVDLSLTVELKIKIASGFGPLITHGSGMDLYKSNHNNVYWLTIPPMKNLALGVINTLEWIPRFKVSPYLFTVPIKEAGEDCHAPTYLPAEVDGDVKLSSNLVILPGQDLQYVLATYDTSRVEHAVVYYVYSPSRSFSYFYPFRLPIKGVPIELQVECFTWDQKLWCRHFCVLADSESGGHITHSGMVGMGVSCTVTREDGTNRR | decreases | decreases | – | – |
| MeV-H genotype A (measles virus envelope hemagglutinin protein): D416N (protein) parent chain: MSPQRDRINAFYKDNPHPKGSRIVINREHLMIDRPYVLLAVLFVMFLSLIGLLAIAGIRLHRAAIYTAEIHKSLSTNLDVTNSIEHQVKDVLTPLFKIIGDEVGLRTPQRFTDLVKLISDKIKFLNPDREYDFRDLTWCINPPERIKLDYDQYCADVAAEELMNALVNSTLLETRTTNQFLAVSKGNCSGPTTIRGQFSNMSLSLLDLYLGRGYNVSSIVTMTSQGMYGGTYLVEKPNLSSKRSELSQLSMYRVFEVGVIRNPGLGAPVFHMTNYLEQPVSNDLSNCMVALGELKLAALCHGEDSITIPYQGSGKGVSFQLVKLGVWKSPTDMQSWVPLSTDDPVIDRLYLSSHRGVIADNQAKWAVPTTRTDDKLRMETCFQQACKGKIQALCENPEWAPLKDNRIPSYGVLSVDLSLTVELKIKIASGFGPLITHGSGMDLYKSNHNNVYWLTIPPMKNLALGVINTLEWIPRFKVSPYLFTVPIKEAGEDCHAPTYLPAEVDGDVKLSSNLVILPGQDLQYVLATYDTSRVEHAVVYYVYSPSRSFSYFYPFRLPIKGVPIELQVECFTWDQKLWCRHFCVLADSESGGHITHSGMVGMGVSCTVTREDGTNRR | – | – | no change | no change |
